The record followed here is publication PMC9832876, “PpTCP18 is upregulated by lncRNA5 and controls branch number in peach (Prunus persica) through positive feedback regulation of strigolactone biosynthesis”.

In data set [1] the target is T1, PpTCP18 (Prunus persica, UniProt A0A251PBZ8 1-468).
T1 sequence: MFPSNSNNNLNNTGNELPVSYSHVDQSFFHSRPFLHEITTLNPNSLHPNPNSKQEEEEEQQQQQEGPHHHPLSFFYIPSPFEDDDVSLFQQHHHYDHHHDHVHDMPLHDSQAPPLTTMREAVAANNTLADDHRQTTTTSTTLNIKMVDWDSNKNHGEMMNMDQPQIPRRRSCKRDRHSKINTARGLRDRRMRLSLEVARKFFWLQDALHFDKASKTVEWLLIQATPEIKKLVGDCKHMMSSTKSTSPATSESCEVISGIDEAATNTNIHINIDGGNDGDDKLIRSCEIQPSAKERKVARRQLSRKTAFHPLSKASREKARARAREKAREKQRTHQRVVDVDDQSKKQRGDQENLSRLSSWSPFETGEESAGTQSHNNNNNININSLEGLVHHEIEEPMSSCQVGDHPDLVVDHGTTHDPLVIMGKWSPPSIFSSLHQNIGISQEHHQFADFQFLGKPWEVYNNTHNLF
The experiment in a line: EMSA; weakened by 100-fold unlabeled probe; Thermo Scientific EMSA kit, manufacturer's instructions; buffer, salt, pH and temperature not stated. The conditions noted are these: protein: recombinant; tags: MBP; chain copies: 2; label: 5' biotin; blunt. (In general: In EMSA bound probe runs differently from free probe, usually more slowly.)

The target of data set [2] is T1, PpTCP18. Nature of the data set: EMSA; Thermo Scientific EMSA kit, manufacturer's instructions; buffer, salt, pH and temperature not stated. The conditions noted are these: protein: recombinant; tags: MBP; chain copies: 2; label: 5' biotin; blunt.

B1: PpMAX4 promoter probe (dsDNA)
DNA 1: ATATTGTAATTTTTCACTGGCATACTGGTCCCTAATCACCAATTAACGCAACAT
DNA 2: ATGTTGCGTTAATTGGTGATTAGGGACCAGTATGCCAGTGAAAAATTACAATAT
As to B1, in the data set with PpTCP18 [1], the binding result was “binds”.

B2: PpMAX4 mutated probe (GGTCCC to AAAAAA) (dsDNA)
DNA 1: ATATTGTAATTTTTCACTGGCATACTAAAAAATAATCACCAATTAACGCAACAT
DNA 2: ATGTTGCGTTAATTGGTGATTATTTTTTAGTATGCCAGTGAAAAATTACAATAT
B2: in the data set with PpTCP18 [2], the binding result is given as “no binding”.

B3: PpLBO1 promoter probe (dsDNA)
DNA 1: GTAAATACTCCAAACCATTACACTAGTGGGTCCTTTACTAATTACATTGTTTTAA
DNA 2: TTAAAACAATGTAATTAGTAAAGGACCCACTAGTGTAATGGTTTGGAGTATTTAC
As to B3, the binding result in the data set with PpTCP18 [1] is reported as “binds”.

B4: PpLBO1 mutated probe (GGGTCC to AAAAAA) (dsDNA)
DNA 1: GTAAATACTCCAAACCATTACACTAGTAAAAAATTTACTAATTACATTGTTTTAA
DNA 2: TTAAAACAATGTAATTAGTAAATTTTTTACTAGTGTAATGGTTTGGAGTATTTAC
Take B4: the binding result in the data set with PpTCP18 [2] was “no binding”.

B5: PpMAX3 promoter probe (dsDNA)
DNA 1: CGTAACCCTCCATTTAAAAAAGTGGGTCCCAAATCCCAAAGCATGAGTGGATGGAGAGGAA
DNA 2: TTCCTCTCCATCCACTCATGCTTTGGGATTTGGGACCCACTTTTTTAAATGGAGGGTTACG
Take B5: the binding result with PpTCP18 [1] was “binds”.
